Measurements taken from the supplement of paper PMC9170038.

Tested on: MS2 coat protein
Assay: apparent KD of MS2 coat protein; designed switch direction (-1 OFF switch, 1 ON switch): -1; higher = weaker reporter binding
Summary of the method: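 Designed RNA switches were transcribed on Illumina chips by stalled E. coli RNA polymerase and titrated with SNAP-549-labelled MS2 coat protein from 0.7 or 1.5 nM, doubling to 3 µM. Step length ran from 0.8–1.5 h at the lowest concentration to 10–20 min at the highest. The apparent KD is the median over clusters for each design, from curve-fitted normalised cluster fluorescence.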

[1] = Eterna round: R95, input ligand: FMN 200 uM
[2] = Eterna round: R95, input ligand: microRNA oligo, concentration not stated
[3] = Eterna round: R95, input ligand: none
[4] = input ligand: microRNA oligo, concentration not stated

Sequence	apparent KD of MS2 coat protein (input ligand: FMN 200 uM) [nM]	apparent KD of MS2 coat protein (input ligand: none) [nM]	apparent KD of MS2 coat protein [1] [nM]	apparent KD of MS2 coat protein [2] [nM]	apparent KD of MS2 coat protein [3] [nM]	apparent KD of MS2 coat protein [4] [nM]
UUUACAAGCUAUUGAUCCCACAUGAGGAUCACCCAUGUUCCUGGCCGUGAGGCUAGGUAAACAAUAGCUCGUCUUAU [Sensor-V1 #41] (Eterna round: R97, puzzle: Sensor, turn-off variant 1)	98.4	95.1				
GCAAGCGACUAGGCUCGUCUUAUAUUGAAAAGAUUGAAAACAUGAGGAUCACCCAUGUAUGUGGGAGAGUUGAAGUG [JR_SV3TOV2_Sub011] (puzzle: Sensor v3, turn-off variant 2)			286	395	310	
ACAUGAGGAUCACCCAUGUACAGGGUUUAGUUUCAUCGUUUGAAGGAUAUACUCCGUUAGUUGUCGUAGAAGGUCACAGUUUGG [JR_ExcNG3_Sub007] (Eterna round: R96, puzzle: Exclusion NG 3)	179	178				128
UUAAUUAAUUAAGGCUGAAGAUCACAUGAGGAUCACCCAUGUAAGGAUAUCAGCUCGUUUAGAGCUGAGAAGGUACAUGCAGCC [ExNG3/18-B2] (Eterna round: R96, puzzle: Exclusion NG 3)	160	370				568
AUGUUACAUGAGGAUCACCCAUGUGAGGAUAUGAGUCAGUCACGGUGACGUGGCUGACUCAGAAGGCACAAAGG [JL-ex1-4.38 salish99 mod] (Eterna round: R97, puzzle: Exclusion 1)	754	180				
AUUGUUUGAUACCUCUAAUACAUGAGGAUCACCCAUGUUAUCGAGGAUAUGCAGUAGAGUGGAGAGCAGAAGGCGAAGUAAGUG [JR_ExcNG3_Sub028] (Eterna round: R96, puzzle: Exclusion NG 3)	27	13.7				14.4
AUUAUAAAGUCAGGAUAUCGGUUUAUAAUAUUACGAGAAGGGACAUGAGGAUCACCCAUGUAUUAACACUACUAUGUCAACUAA [1st Attempt] (Eterna round: R96, puzzle: Exclusion NG 1)						33.3
AGCUGUGGCCGAGGAUAUCUAACUUCAAAUACCGACGUAUAGUCGGACAUGAGGAUCACCCAUGUAGAGAAGGCGGUCUCAGCA [Eli eng2 - 037] (Eterna round: R96, puzzle: Exclusion NG 2)						12.3
CCUUUGUCAGGAUAUCAGAAAACGCUCGUAGGGAGCGCAAAUGAGAAGGGACAUGAGGAUCACCCAUGUAAAGA [Edmareen] (puzzle: Exclusion 4)			219	45.1	60.3	
AGUAGUAGUAUCCGAUCCUACAUGAGGAUCACCCAUGUAGCUAGACGUGCACGCGAUGCUCGUCAGACUACCGGAUG [salish99_TOv1_r3_041] (puzzle: Sensor v3, turn-off variant 1)			23.7	23	29.6	
UUAAGCUUUGAGAUCCUUAACAUGAGGAUCACCCAUGUUCGUCUUAUGAUGGUCUGAUCCCUGAGGAUCGGACCGUA [Mat - Sensor v3 - turn-off var 1 - JL Mod - D4] (puzzle: Sensor v3, turn-off variant 1)			180	11.2	219	
UCAUAUAACGAGGAUAUGCGGGCCGUUUUCCCAGCAGAAGGCGUUACAUGAGGAUCACCCAUGUACCCGGGUAA [EX6 A.29] (Eterna round: R97, puzzle: Exclusion 6)	18.1	515				
ACUUAUUGAGGAUAUACAUAAAUUUACAUGAGGAUCACCCAUGUUCUUCUAUGUAUAUAUGUAGAAGGCAGAAGAU [Mat - Exclusion 5 - JL Mod - D32] (Eterna round: R97, puzzle: Exclusion 5)	29.2	19.3				
GACUGACAUGAGGAUCACCCAUGUAAGGAUAUAGGGAGCGUCGCUCCGCAACCCGCGCCUAGAAGGUACAAGGU [EX1 C.20] (Eterna round: R97, puzzle: Exclusion 1)	18.2	21.2				
AUAAUGUAAGGAUAUCAGUCGACUAGCUUCGGCUAGUCGACUGAGAAGGUACAUGAGGAUCACCCAUGUGGUUC [E4/11-A1] (Eterna round: R97, puzzle: Exclusion 4)	118	985				
UAUAUAUAGUAAGGAUAUGUAAUAAUUUUAUAAACAGAAGGUACUGACAUGAGGAUCACCCAUGUUUUAGUGUGGGCAUGUAGA [JMF's solution 30] (Eterna round: R96, puzzle: Exclusion NG 1)						73.2
GAUCCACAUGAGGAUCACCCAUGUUAGGAUAUGACAACGACUCGCACUACGUUGUUGCUCAGAAGGAGCACCCA [Eternabot (Original) Solution 10] (Eterna round: R97, puzzle: Exclusion 1)	19.1	18.3				

Sequence	apparent KD of MS2 coat protein (input ligand: FMN 200 uM) [nM]	apparent KD of MS2 coat protein (input ligand: none) [nM]	apparent KD of MS2 coat protein [1] [nM]	apparent KD of MS2 coat protein [2] [nM]	apparent KD of MS2 coat protein [3] [nM]	apparent KD of MS2 coat protein [4] [nM]
CUGAGGUAGCGGUCCUAUGACAUGAGGAUCACCCAUGUGCCUUGCUACAAGCUUUUUGCUCGUCUUAUGAUUCUCGG [JL Atriat mod 9] (puzzle: Sensor v3, turn-off variant 1)			47.8	107	51.9	
AAGGGUGCCUUUAGAAAGACAUGAGGAUCACCCAUGUAGACUGAGGAUAUCCACUCCUAAGGACCGGAGAAGGCAGUGUAAUGC [Ex NG3 #62] (Eterna round: R96, puzzle: Exclusion NG 3)	62.1	31.8				18.6
GAUUGACAUGAGGAUCACCCAUGUGAGGAUAUCGGCUGGACCGUGUUGGCUUCCGUCUCGAGAAGGCGCAUAGG [Exclusion 1 V43] (puzzle: Exclusion 1)			137	39.7	44.4	
GCAGGAUAAGUGAGGAUAUACCUCUGGAUACAGAGGUAGAAGGCACAUGAGGAUCACCCAUGUUACUCACCUGC [Fiskers BMX 4 - 76] (puzzle: Brourd's mod of Exclusion 4)				10.9		
AAACAAACGGCAGGAUAUCCUCGUCAACACCACAAGUCCACUCGGACAUGAGGAUCACCCAUGUAGGAGAAGGGUCAGAAAUAC [ExNG2 4th] (Eterna round: R96, puzzle: Exclusion NG 2)	37.2	37.1				24.6
UGCAUGUCAGGAUAUAUUAGUACACUAGUCAGUCUAGGUGCGUAGAAGGGACAUGAGGAUCACCCAUGUGACAU [Eternabot (L2) Solution 1] (Eterna round: R97, puzzle: Exclusion 4)	143	64.9				
AUUAUUUAAGUCAGGAUAUCGUAUUUAUUUAAAUACGAGAAGGGACAUGAGGAUCACCCAUGUAAUAAAUUUUU [JMFs Solution 3] (puzzle: Brourd's mod of Exclusion 4)				17.2		
GAGGAGGUAGGAUAUACGAUAAUAUAGGGUAGAUAUAUAACACAUGAGGAUCACCCAUGUAGAAGGACCAGGAG [Mat - Exclusion 2 - Mod of my Tesla design - D64] (puzzle: Exclusion 2)				36.7		
GUCACAUGGACAUAGGAUCACAUGAGGAUCACCCAUGUGACUAACAAGCUUUUUGCUCGUCUUAUGUCCAUGUGAAA [Stov1/15-A2] (Eterna round: R97, puzzle: Sensor, turn-off variant 1)	14.1	13.2				
AAUUCGCAAGCGAGAUCCCACAUGAGGAUCACCCAUGUGCUCGUCUUAUAAGGUACUGUGACAAAAGUCACGGUACC [Mat - Sensor, turn-off var - Eli Mod - D84] (Eterna round: R97, puzzle: Sensor, turn-off variant 1)	14.3	13.2				
UGUUGUCGCGUAGGAUAUGCAUGAGGAUCACCCAUGCAAUUAGAGUUAACAUGAGGAUCACCCAUGUAGAAGGGCGGGACAACU [pwkr exNG2 2xF5 1xFMN.7] (Eterna round: R96, puzzle: Exclusion NG 2)	62.8	51.2				42.2
CUGAACCCGGUAGGAUAUAUUGUGGGCGGGCGUGGAACGACAUGAGGAUCACCCAUGUAAUUGAGGUAGAAGGGCCGAGAGGUU [Excl-NG2-LRO16] (Eterna round: R96, puzzle: Exclusion NG 2)	38.5	43.8				30.4
AACAAACAUGAGGAUCACCCAUGUCAGGAUAUGGCGGCUAGUGUGCCACCGUACACUACCAGAAGGGACUGGGU [Diedtiis] (puzzle: Exclusion 1)				111		
GCCUCACAUGAGGAUCACCCAUGUCAGGAUAUAGGAGACGGCAGAAAUCCUGCCAUCGCUAGAAGGGACUGGCA [Tirebi] (Eterna round: R96, puzzle: Exclusion 1)	138	67				50.6
AAUAACAAGUAAGAUCCUAACAUGAGGAUCACCCAUGUGCUCGUCUUAUAAAGUACUAUCACGAAAGUGAUAGUACA [Sensor 3, v1 - 46] (puzzle: Sensor v3, turn-off variant 1)			36.5	153	43.1	
AUAAAUCAUGUAGGAUAUGCGUAGCGAAGCUAUGCAGAAGGACAUGAGGAUCACCCAUGUCUUUCCGUCUGCGAACAGACGGAA [Mat - Exclusion NG 1 - Mod of JL - D43] (Eterna round: R96, puzzle: Exclusion NG 1)	199	31.6				20
UAAAAGCGGAAGGAUAUGUGUCUAAAGUCUGUAGCAGAAGGUCCGACAUGAGGAUCACCCAUGUGACCUGGUGC [Biatceis] (puzzle: Exclusion 6)				10.3		
